# Assay results: the supplement of paper PMC7125110
# ± gives the standard error. This sample holds only a part of the variants without activity.
# B1: glmS ribozyme (parent)
# chain: AUAAAAGCGCCAGAACUACAGAAAUGUAGUUGACGAGGAGGAGGUUUAUCGAAUUUUCGGCGGAUGCCUCCAAA
# What was measured:
# Settings in all cases: with glucosamine-6-phosphate
# glucosamine-6-phosphate [1] = variants of: B1; experiment: self-cleavage kobs at 640 uM GlcN6P; higher = faster cleavage; RNA array
# In short: (§1)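 kobs was derived by fitting per-tile medians to one- or two-exponential decays after normalising signals to baseline and to non-cleaving reference variants. Those signals came from barcoded ribozyme variants transcribed in situ by E. coli RNA polymerase on sequenced MiSeq chips, followed through a hybridised Cy3 probe at 37 °C and imaged over ~14 h. Glucosamine-6-phosphate (40 μM to 10 mM) in HEPES/KCl/Mg(OAc)2 buffer was flowed in. Weighted Michaelis–Menten fits across concentrations then gave kcat and KM.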
# glucosamine-6-phosphate [2] = variants of: B1; experiment: self-cleavage kobs at 2500 uM GlcN6P; higher = faster cleavage; RNA array
# In short: as §1
# glucosamine-6-phosphate [3] = variants of: B1; experiment: self-cleavage kobs at 10000 uM GlcN6P; higher = faster cleavage; RNA array
# In short: as §1
Variant,self-cleavage kobs at 640 uM GlcN6P (glucosamine-6-phosphate [1]),self-cleavage kobs at 2500 uM GlcN6P (glucosamine-6-phosphate [2]),self-cleavage kobs at 10000 uM GlcN6P (glucosamine-6-phosphate [3])
U30C G32C U55A,8.42e-05 ± 1.7e-05 s⁻¹,0.000128 ± 3.1e-05 s⁻¹,
U30G U55A,0.0024 ± 0.00049 s⁻¹,0.00295 ± 0.00084 s⁻¹,
G29U A33C C50U U57A C61U,< 1e-05 s⁻¹,,
G29A G37A,0.000124 ± 3.6e-05 s⁻¹,0.000156 ± 5.7e-05 s⁻¹,
C34G U46G U65A,< 1e-05 s⁻¹,< 1e-05 s⁻¹,
G32U A39G C71U,0.000114 ± 3.4e-05 s⁻¹,0.00038 ± 0.0001 s⁻¹,
G32U G35A U55G C68A,< 1e-05 s⁻¹,< 1e-05 s⁻¹,
U30G G37A A53G,0.000102 ± 2.5e-05 s⁻¹,,
G32C A33G A42U U45G U57C A64C C71A,< 1e-05 s⁻¹,< 1e-05 s⁻¹,
C34U U49A U55G C61U C68G,0.000585 ± 0.00016 s⁻¹,,
G32C A48U A64C,< 1e-05 s⁻¹,,
U31C G35C C50U,< 1e-05 s⁻¹,< 1e-05 s⁻¹,
U30C C34A A36G A52U,< 1e-05 s⁻¹,< 1e-05 s⁻¹,
G32A U57G U69G,0.000252 ± 0.00011 s⁻¹,,
C34G G35C G60C C68G,6.81e-05 ± 3.1e-05 s⁻¹,,
G29C U54G C70G,7.66e-05 ± 3.1e-05 s⁻¹,,
C16G A36C G51A G59C C61G,< 1e-05 s⁻¹,< 1e-05 s⁻¹,
A33C G35A G41A,< 1e-05 s⁻¹,< 1e-05 s⁻¹,
C34A A53U C70U,< 1e-05 s⁻¹,,
U31A U65C,6.63e-05 ± 2.8e-05 s⁻¹,0.000132 ± 3.7e-05 s⁻¹,0.000395 ± 0.0001 s⁻¹
C34U A52G U54G,< 1e-05 s⁻¹,< 1e-05 s⁻¹,
C16U U46C A53U,0.000328 ± 7.3e-05 s⁻¹,0.00078 ± 0.00025 s⁻¹,

Variant,self-cleavage kobs at 640 uM GlcN6P (glucosamine-6-phosphate [1]),self-cleavage kobs at 2500 uM GlcN6P (glucosamine-6-phosphate [2]),self-cleavage kobs at 10000 uM GlcN6P (glucosamine-6-phosphate [3])
G29U U45C U55G,3.35e-05 ± 1.5e-05 s⁻¹,7.82e-05 ± 1.1e-05 s⁻¹,
C19A U54C C58A C68G,9.88e-05 ± 2.4e-05 s⁻¹,0.00036 ± 0.0001 s⁻¹,
C34G G41C C71U,< 1e-05 s⁻¹,,
C16A G60U U69G,< 1e-05 s⁻¹,,
C34U G43U G59C,< 1e-05 s⁻¹,< 1e-05 s⁻¹,
C34G U65G,< 1e-05 s⁻¹,< 1e-05 s⁻¹,< 1e-05 s⁻¹
U30C G38U U57C A64G,< 1e-05 s⁻¹,,
C16U G59C U65G,< 1e-05 s⁻¹,< 1e-05 s⁻¹,
G21U U69G,6.25e-05 ± 1.4e-05 s⁻¹,9.89e-05 ± 2e-05 s⁻¹,
U30G A48U U65A U69G C70U,4.35e-05 ± 2e-05 s⁻¹,,
G21U U30A,0.00112 ± 0.00029 s⁻¹,0.000247 ± 0.00012 s⁻¹,0.00354 ± 0.00075 s⁻¹
G29U C58A C68A,0.000121 ± 3.2e-05 s⁻¹,3.43e-05 ± 1.5e-05 s⁻¹,
U30G U45C C71A,3.43e-05 ± 1.1e-05 s⁻¹,8.42e-05 ± 2e-05 s⁻¹,
A33U G44C G51A U56A,< 1e-05 s⁻¹,,
A33U U45G U47A C67A C68G,< 1e-05 s⁻¹,< 1e-05 s⁻¹,
G32U U47A A53G U56A C71U,7.91e-05 ± 2.4e-05 s⁻¹,0.000259 ± 6.2e-05 s⁻¹,
G32U C58A C67A,7.59e-05 ± 1.8e-05 s⁻¹,0.000241 ± 4.9e-05 s⁻¹,
G29U G40A C70U,3.68e-05 ± 1.2e-05 s⁻¹,,
A33C G66C C68G C70A,< 1e-05 s⁻¹,,
U30A G40U G60C C61A,< 1e-05 s⁻¹,< 1e-05 s⁻¹,
U31A G32C C61U,< 1e-05 s⁻¹,,
A33G A39C G44A C71G,< 1e-05 s⁻¹,< 1e-05 s⁻¹,

Variant,self-cleavage kobs at 640 uM GlcN6P (glucosamine-6-phosphate [1]),self-cleavage kobs at 2500 uM GlcN6P (glucosamine-6-phosphate [2]),self-cleavage kobs at 10000 uM GlcN6P (glucosamine-6-phosphate [3])
U30C G63U C68G,9.11e-05 ± 1.9e-05 s⁻¹,5.6e-05 ± 1.4e-05 s⁻¹,
U31C G32A A39G,0.000252 ± 4.9e-05 s⁻¹,,0.0014 ± 0.00028 s⁻¹
C34A G44U C50A,< 1e-05 s⁻¹,,
G29A C50U C68A,4.21e-05 ± 1.6e-05 s⁻¹,,
G32C A33U C68U C71G,< 1e-05 s⁻¹,< 1e-05 s⁻¹,
A33U G41U A48C C68U,< 1e-05 s⁻¹,,
U30G A42G G66A C71A,0.00018 ± 5.9e-05 s⁻¹,0.000159 ± 4.2e-05 s⁻¹,
A33C G37A G41C U56C,< 1e-05 s⁻¹,,
G35A G41U U46A,< 1e-05 s⁻¹,< 1e-05 s⁻¹,
G32U A52U C58U,< 1e-05 s⁻¹,< 1e-05 s⁻¹,
G32C U56A U65G U69G,0.000283 ± 0.0001 s⁻¹,6.06e-05 ± 3e-05 s⁻¹,
U30A G38C A39U,< 1e-05 s⁻¹,,
C16U A39U A42C,8.5e-05 ± 2.3e-05 s⁻¹,0.000172 ± 3.6e-05 s⁻¹,
A33C G44C C58U C61A,< 1e-05 s⁻¹,< 1e-05 s⁻¹,
A33C A36U G37U C71U,< 1e-05 s⁻¹,< 1e-05 s⁻¹,
G32A A48U U65C,< 1e-05 s⁻¹,,
G35A G37U C58A C70A,0.000632 ± 0.00016 s⁻¹,,
A33C A42U,< 1e-05 s⁻¹,< 1e-05 s⁻¹,
C34U G35C C50U C67A,< 1e-05 s⁻¹,< 1e-05 s⁻¹,
C16U A36G A39C,< 1e-05 s⁻¹,,
